The text below walks through data of patent publication US20210147541A1 (Kyowa Kirin, published 2021).

The target of one assay is T1, human CADM3 (human, UniProt Q8N126 25-398).
T1 construct: Full-length gene expressed transiently on Expi293F cells; also called cell adhesion molecule 3; human CADM3/Expi293F cells
T1 sequence: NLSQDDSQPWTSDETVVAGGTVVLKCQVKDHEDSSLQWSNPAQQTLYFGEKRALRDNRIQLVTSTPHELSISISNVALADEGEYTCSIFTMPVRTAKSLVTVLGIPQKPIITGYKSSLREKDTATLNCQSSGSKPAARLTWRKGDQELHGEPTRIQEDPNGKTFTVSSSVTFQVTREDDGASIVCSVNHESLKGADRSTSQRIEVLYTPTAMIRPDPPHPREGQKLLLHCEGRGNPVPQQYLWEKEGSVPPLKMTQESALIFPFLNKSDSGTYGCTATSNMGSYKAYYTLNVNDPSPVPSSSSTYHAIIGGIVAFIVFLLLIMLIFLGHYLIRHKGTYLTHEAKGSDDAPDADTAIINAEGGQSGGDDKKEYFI
Put plainly: flow cytometry, 10 ug/mL, human CADM3/Expi293F vs parent Expi293F cells. The protocol: By using the cells, the reactivity of the antibodies produced in Example 2 with the CADM3-expressing cells was analyzed by a fluorescence activated cell sorting (FACS) method according to the following procedure.
After washing with SB, the cells were suspended in SB, and the fluorescence intensity of each cell was measured using a flow cytometer FACS CANTO II (manufactured by Becton, Dickinson and Company). Note that as a negative control, 10 μg/mL of the anti-AVM antibody was used.
The detection results were analyzed, and a mean fluorescence intensity (MFI) was calculated using a geometric mean. Further, with respect to the MFI when the concentration of each antibody was 10 μg/mL, the ratio of the MFI (mean fluorescence intensity ratio) between the human CADM3/Expi293F cells and the Expi293F cells (parent cell line) was calculated.

The target in the next assay is T2, hCADM3-GST (human).
T2 construct: also called extracellular domain of human CADM3 to which GST was added at the C-terminal side; human CADM3-GST
In words: SPR (Biacore T-100), antibody captured, hCADM3-GST as analyte. The method, then: (§1) The affinity of the anti-CADM3 antibodies produced in Example 2 for human CADM3 and mouse CADM3 was measured using Biacore T-100 (GE Healthcare). Each of the antibodies was immobilized on a […] sensor chip using a Human antibody Capture kit, and the binding ability was evaluated using hCADM3-GST and mCADM3-GST produced in Example 4 as analytes.
(§2) The obtained sensorgram was analyzed with BIA evaluation software, and the dissociation constant (KD value) was calculated.

The target of a further assay is T3, mCADM3-GST (mouse).
T3 construct: also called extracellular domain of mouse CADM3 to which GST was added at the C-terminal side; mouse CADM3-GST
In words: SPR (Biacore T-100), antibody captured, mCADM3-GST as analyte. The protocol:
as §1, §2

The target of the next assay is T4, mouse CADM3 (mouse, UniProt Q99N28 23-396).
T4 construct: Full-length gene expressed transiently on Expi293F cells; also called mouse CADM3/Expi293F cells; Mouse CADM3-expressing cells
T4 sequence: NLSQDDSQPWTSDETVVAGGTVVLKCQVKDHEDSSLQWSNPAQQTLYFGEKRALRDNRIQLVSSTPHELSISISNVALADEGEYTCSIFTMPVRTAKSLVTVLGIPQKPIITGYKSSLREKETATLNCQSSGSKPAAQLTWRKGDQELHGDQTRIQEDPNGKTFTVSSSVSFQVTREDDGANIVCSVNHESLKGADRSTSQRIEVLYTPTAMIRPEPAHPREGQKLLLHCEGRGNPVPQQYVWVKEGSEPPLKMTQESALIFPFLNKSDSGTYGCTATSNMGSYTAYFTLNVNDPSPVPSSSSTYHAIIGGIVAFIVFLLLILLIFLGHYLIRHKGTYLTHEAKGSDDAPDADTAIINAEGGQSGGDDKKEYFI
In words: flow cytometry, 10 ug/mL, mouse CADM3/Expi293F vs parent Expi293F cells.

B1: CADM3309 hG4PE(R409K) (antibody, V domains shown)
VH: EVQLVQSGAEMKKPGSSVKLSCKFSGGDFRSYPISWVRQAPGQGLEWMGGIIPIFSRVNYAQRFLGRITITADESTSTAYMELRSLTSDDTAVYYCATDTPSGYNSPYYYKGMDVWGQGTLVTVSS
VL: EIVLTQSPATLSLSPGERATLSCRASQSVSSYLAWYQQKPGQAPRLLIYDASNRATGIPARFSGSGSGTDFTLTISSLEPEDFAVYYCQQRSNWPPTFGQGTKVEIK
notes: Human IgG4 variant (S228P, L235E, R409K), vector pCI-hKG4PE(R409K)
As for B1, the “Mean fluorescence intensity ratio” value in the assay with human CADM3 turned out to be 10.2; in the assay with mouse CADM3, 12.5. In addition, the binding result with hCADM3-GST and with mCADM3-GST was “binds” throughout.

B2: CADM3351 hG4PE(R409K) (antibody, V domains shown)
VH: EVQLLQSGGGLVQPGGSLRLSCAASGLIFSDHYMDWVRQAPGKGLEWVGSIRNKRNGGSTEYAASVKGRFSISRDDSKNSLYLQMNSLKTEDTAMYFCATTRTGYQGFYGMDVWGQGTTVTVSS
VL: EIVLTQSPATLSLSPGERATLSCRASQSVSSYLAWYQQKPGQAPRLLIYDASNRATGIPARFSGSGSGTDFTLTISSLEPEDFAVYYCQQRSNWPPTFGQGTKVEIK
notes: as for B1
As to B2, the “Mean fluorescence intensity ratio” value with human CADM3 was determined as 8.2; with mouse CADM3, 8.8. Further, the binding result in the assay with hCADM3-GST and with mCADM3-GST was “binds” in each case.

B3: CADM301 scFv-hG4PE (Fc fusion)
VH: QVQLVQSGAEVRRPGTSVKVSCKASGYSFTSYDINWVRLATGQGLEWMGWMNPNTGDTGSPQKFQDRVTMTRDISTGTAYLELRGLKSEDTAIYYCARGFLVTAYTAEFFPHWGQGTLVTVSS
VL: SYVLTQPPSVSVAPGKTARLTCGGNNIGSKSVHWYQQRPGQAPVLVINYDSDRPSGIPERFSGSNSENTATLTISRVEAGDEADYYCQVWDSGSDHVVFGGGTQLIIL
notes: also called anti-CADM3 scFv-Fc antibody
Consider B3, for which the results for the “Mean fluorescence intensity ratio” value with human CADM3 and in the assay with mouse CADM3 were 4.22 and 8.08, respectively. For the same molecule, the binding result with hCADM3-GST and with mCADM3-GST was “binds” in each case.

B4: CADM3349 hG4PE(R409K) (antibody, V domains shown)
VH: QVQLQQWGGGLLTPSETLSLSCDVSGGAFTNYHWTWIRQPPGKGLEWIGEIFHTGTTNYNPSLQGRVAMSIDTTKRQFFLRLTSLTAADTAVYYCARVGKYGWYVGDFWGQGTTVTVSS
VL: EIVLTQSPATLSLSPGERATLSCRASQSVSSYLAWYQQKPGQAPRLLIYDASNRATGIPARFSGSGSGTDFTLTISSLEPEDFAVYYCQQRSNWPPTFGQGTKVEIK
notes: as for B1
For B4, the “Mean fluorescence intensity ratio” value in the assay with human CADM3 was 4.8; with mouse CADM3, 48.7. Moreover, the binding result in the assay with hCADM3-GST and in the assay with mCADM3-GST was “binds” throughout.

B5: iCADM3_3R1-L11 VHH-hG4PE(R409K) (Fc fusion)
chain: QVQLVESGGGLVQAGGSLRLSCAASGSIFSFNAMGWYRQAPGKQRGLVAVITSGGYTNYADSVKGRFTITRDNAKNTVYLQMNSLKPEDTAVYYCNAEGVYSDYVIMNYWGQGTQVTVSS
notes: VHH-Fc antibody; also called anti-CADM3 VHH-Fc antibody iCADM3_3R1-L11; not shown: Hinge-CH2-CH3 region of the human IgG4 heavy chain constant region (IgG4 variant)
On to B5, for which the “Mean fluorescence intensity ratio” value with human CADM3 was 32.2; with mouse CADM3, 35.5. In addition, the binding result with hCADM3-GST and with mCADM3-GST was “binds” each time.

B6: iCADM3_3R1-L10 VHH-hG4PE(R409K) (Fc fusion)
chain: QVQLVESGGGLVQAGGSLRLSCAASGSIFSIHAMGWYRQAPGKQRELVATVTSGGSTNYADSVKGRFTISRDNAKNTVYLQMNSLKPEDTAVYYCNAETPYYSSTYYTNYWGQGTQVTVSS
notes: VHH-Fc antibody; also called anti-CADM3 VHH-Fc antibody iCADM3_3R1-L10; not shown: Hinge-CH2-CH3 region of the human IgG4 heavy chain constant region (IgG4 variant)
In the case of B6, the “Mean fluorescence intensity ratio” value with human CADM3 is 37.5; in the assay with mouse CADM3, 8.87. Moreover, the binding result with hCADM3-GST and in the assay with mCADM3-GST was “binds” each time.

B7: CADM3301 hG4PE(R409K) (antibody, V domains shown)
VH: QMQLVQSGAEVKKPGSSVKVSCKASGGTFNNYAISWVRQAPGQGLEWMGGNIPLSGTPKYAQKFQGRITMTADKSTSTEYMELSSLTSEDTAVYYCARDTPSGYNSPYYYKGMDVWGQGTMVTVSS
VL: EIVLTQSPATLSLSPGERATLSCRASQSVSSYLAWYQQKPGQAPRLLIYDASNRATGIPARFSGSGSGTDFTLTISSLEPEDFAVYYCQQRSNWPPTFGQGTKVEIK
notes: as for B1
On to B7, for which the “Mean fluorescence intensity ratio” value came out at 6 with human CADM3 and 6.2 with mouse CADM3. The binding result with hCADM3-GST and with mCADM3-GST was “binds” in each case.

B8: CADM3316 hG4PE(R409K) (antibody, V domains shown)
VH: EVQLVETGGALVQPGGSLRLSCAASGFTFSSYSMNWVRQAPGKGLEWLSGISGGAFSTHYADSVKGRFTISRDNSKNTLYLQMNSLRAEDTAVYYCARVGRLSGSYNRYYYYYGMDVWGQGTLVTVSS
VL: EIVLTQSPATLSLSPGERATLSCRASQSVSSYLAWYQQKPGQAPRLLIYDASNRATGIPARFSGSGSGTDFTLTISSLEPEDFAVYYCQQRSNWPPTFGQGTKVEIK
notes: as for B1
Regarding B8, the results for the “Mean fluorescence intensity ratio” value with human CADM3 and with mouse CADM3 were 6.5 and 7.1, respectively. Also, the binding result in the assay with hCADM3-GST and in the assay with mCADM3-GST was “binds” each time.

B9: CADM3314 hG4PE(R409K) (antibody, V domains shown)
VH: QVQLVESGGGVVQPGGSLRLSCAASGFSFNNHGMHWVRQAPGKGLEWVTFIRFDGSSKYYADSVKGRFTISRDNSKNTVYLEMNSLRAEDTGVYYCVNTPRGWSFDIWGRGTLVTVSS
VL: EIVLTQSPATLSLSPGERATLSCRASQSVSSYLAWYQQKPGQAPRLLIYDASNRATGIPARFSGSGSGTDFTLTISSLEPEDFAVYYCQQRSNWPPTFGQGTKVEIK
notes: as for B1
Regarding B9, the “Mean fluorescence intensity ratio” value with human CADM3 stood at 10; with mouse CADM3, 9.2. The binding result with hCADM3-GST and with mCADM3-GST was “binds” throughout.

B10: CADM3404 hG4PE(R409K) (antibody, V domains shown)
VH: EVQLVETGGGVVQPGRSLRLSCAASGFAFSNYGMHWVRQAPGKGLEWVSVIYSGGNTDYADSVKGRFTISRDNSKNTVYLQMNSLRAEDTAVYYCASRRVVPGVIDYFDSWGQGTLVTVSS
VL: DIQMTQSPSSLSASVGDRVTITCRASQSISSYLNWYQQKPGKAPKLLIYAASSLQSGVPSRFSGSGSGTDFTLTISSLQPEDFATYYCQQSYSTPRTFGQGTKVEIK
notes: as for B1
With B10, the “Mean fluorescence intensity ratio” value in the assay with human CADM3 was 8.7; with mouse CADM3, 8.2. In addition, the binding result in the assay with hCADM3-GST and with mCADM3-GST was “binds” in each case.

B11: CADM3402 hG4PE(R409K) (antibody, V domains shown)
VH: EVQLVESGGGLVQPGGSLRLSCATSGFRFSMYGMHWVRQSPGKGLEWVSVIYSGGNTDYADSVKGRFTISRDNSKNTVYLQMNSLRAEDTAVYYCASRRVVPGVIDYFDSWGQGTLVTVSS
VL: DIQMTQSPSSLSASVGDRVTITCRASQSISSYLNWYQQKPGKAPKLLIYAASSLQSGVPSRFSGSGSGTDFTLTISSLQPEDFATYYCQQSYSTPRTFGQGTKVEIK
notes: as for B1
As for B11, the “Mean fluorescence intensity ratio” value was found to be 10.8 in the assay with human CADM3 and 9.4 with mouse CADM3. The binding result in the assay with hCADM3-GST and in the assay with mCADM3-GST was “binds” each time.

B12: CADM3219 hG4PE(R409K) (antibody, V domains shown)
VH: QVQLVQSGAEVKKPGASVKVSCKASGYSFTGYYIHWVRQAPGQGLEWMGRINPNSGGTTYAPKFQGRFTMTRDTSTTTVYLELSGLRSEDTAVYYCARVLERQGRPFEADAFDIWGQGTMVTVSS
VL: not shown
notes: as for B1
As to B12, the “Mean fluorescence intensity ratio” value in the assay with human CADM3 stood at 7.3; in the assay with mouse CADM3 it was 9.2. The binding result with hCADM3-GST and in the assay with mCADM3-GST was “binds” throughout.

B13: CADM3312 hG4PE(R409K) (antibody, V domains shown)
VH: QLQLQESGPGLVKPSETLSLTCSVSGGSIRGHYWSWIRQPPGKGLEWMGYINHIGSAAYNPSLKSRVTISVDTSKNQFSLKLSSVTAADTAVYYCARMGPWWELDYWGQGTLVTVSS
VL: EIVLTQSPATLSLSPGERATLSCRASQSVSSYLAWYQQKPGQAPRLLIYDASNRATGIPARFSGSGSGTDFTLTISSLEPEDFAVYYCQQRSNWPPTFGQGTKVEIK
notes: as for B1
Turning to B13, the “Mean fluorescence intensity ratio” value in the assay with human CADM3 is 34.4; with mouse CADM3 it was 31.6. The binding result with hCADM3-GST and with mCADM3-GST was “binds” throughout.

B14: iCADM3_3R1-L5 VHH-hG4PE(R409K) (Fc fusion)
chain: QVQLVESGGGLVQAGGSLRLSCAASGSIVSVNAMGWYRQAPGKQRELVATITSGGSTNYADSAKGRFTISRDNAKNTMYLQMNSLKPEDTAVYYCNGEFWSRRDTRPPGVVNYWGQGTQVTVSS
notes: VHH-Fc antibody; also called anti-CADM3 VHH-Fc antibody iCADM3_3R1-L5; not shown: Hinge-CH2-CH3 region of the human IgG4 heavy chain constant region (IgG4 variant)
Regarding B14, the results for the “Mean fluorescence intensity ratio” value with human CADM3 and in the assay with mouse CADM3 were 25.1 and 4.21, respectively. Besides, the binding result in the assay with hCADM3-GST and in the assay with mCADM3-GST was “binds” throughout.

B15: CADM3102 scFv-hG4PE (Fc fusion)
VH: QMQLVQSGAEVKKPGSSVKVSCKASGGTFSSYAISWVRQAPGQGLEWMGGIIPMSGTANYAQKFQGRVTITADESTSTAYMELSSLRSEDTAVYYCARVEESGWYDHYHGMDVWGQGTTVTVSS
VL: DVVMTQSPLSLPVTPGEPASISCTSSQSLLYSNGFNYLDWYLQKPGQSPQLLIYLGSNRASGVPDRFSGSGSGTDFTLKISRVEAEDVGVYYCMQALTTHPTFGGGTKVDIK
notes: as for B3
In the case of B15, the “Mean fluorescence intensity ratio” value was 52.3 with human CADM3 and 42.6 in the assay with mouse CADM3. The binding result in the assay with hCADM3-GST and with mCADM3-GST was “binds” each time.
